These results are taken from article PMC8026125 (Science Advances, 2021).

The labels stand for the following.
B1: Kin28 (enzyme)
chain: MKVNMEYTKEKKVGEGTYAVVYLGCQHSTGRKIAIKEIKTSEFKDGLDMSAIREVKYLQEMQHPNVIELIDIFMAYDNLNLVLEFLPTDLEVVIKDKSILFTPADIKAWMLMTLRGVYHCHRNFILHRDLKPNNLLFSPDGQIKVADFGLARAIPAPHEILTSNVVTRWYRAPELLFGAKHYTSAIDIWSVGVIFAELMLRIPYLPGQNDVDQMEVTFRALGTPTDRDWPEVSSFMTYNKLQIYPPPSRDELRKRFIAASEYALDFMCGMLTMNPQKRWTAVQCLESDYFKELPPPSDPSSIKIRN
modifications: phosphothreonine at 162 (pT162)
B2: Tfb3 (natural protein)
chain: MLMDEYEENKDMCPICKTDRYLSPDVKFLVNPECYHRICESCVDRIFSLGPAQCPYKGCDKILRKNKFKTQIFDDVEVEKEVDIRKRVFNVFNKTIDDFNGDLVEYNKYLEEVEDIIYKLDHGIDVAKTEEKLRTYEELNKQLIMNNLERSRTEIESFEQRQKFEKEMKLKKRLLERQIEEEERMNKEWTKKEIVNRLSTTTQDINETIEGVKNTVKLKKSSARRKLEELNRVLKNNPYFNSNVNVQNSRLKDAVPFTPFNGDREAHPRFTLKGSVYNDPFIKDLEHRKEFIASGFNTNYAYERVLTEAFMGLGCVISEEL

For one assay, the target named is T1, Ccl1 (yeast, UniProt P37366 1-393).
T1 sequence: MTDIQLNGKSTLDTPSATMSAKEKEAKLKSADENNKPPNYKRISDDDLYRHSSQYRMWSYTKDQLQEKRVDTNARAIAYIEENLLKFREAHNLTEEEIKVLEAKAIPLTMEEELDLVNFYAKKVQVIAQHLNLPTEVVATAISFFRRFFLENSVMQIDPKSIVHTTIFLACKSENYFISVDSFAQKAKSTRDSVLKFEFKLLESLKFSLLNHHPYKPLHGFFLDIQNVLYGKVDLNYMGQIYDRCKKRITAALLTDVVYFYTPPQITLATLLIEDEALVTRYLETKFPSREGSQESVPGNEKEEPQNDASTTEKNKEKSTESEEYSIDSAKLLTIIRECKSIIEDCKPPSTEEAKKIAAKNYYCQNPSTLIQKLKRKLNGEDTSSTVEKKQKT
Nature of the assay: cryo-EM structure.

In the assay “Tfb3” the target is B2. Nature of the assay: cryo-EM structure.

On to B1, for which the binding result with Ccl1 and with Tfb3 was “binds” each time.

Consider B2, for which the binding result with Ccl1 is “binds”.
